According to patent publication US20010044102:

System: c-Myc (pM21 expression), P01106-1
Experiment: cell_activity
Details: luciferase, NIH 3T3, SV40 minimal promoter

Chain of c-Myc (pM21 expression), P01106-1 (P01106 16-454): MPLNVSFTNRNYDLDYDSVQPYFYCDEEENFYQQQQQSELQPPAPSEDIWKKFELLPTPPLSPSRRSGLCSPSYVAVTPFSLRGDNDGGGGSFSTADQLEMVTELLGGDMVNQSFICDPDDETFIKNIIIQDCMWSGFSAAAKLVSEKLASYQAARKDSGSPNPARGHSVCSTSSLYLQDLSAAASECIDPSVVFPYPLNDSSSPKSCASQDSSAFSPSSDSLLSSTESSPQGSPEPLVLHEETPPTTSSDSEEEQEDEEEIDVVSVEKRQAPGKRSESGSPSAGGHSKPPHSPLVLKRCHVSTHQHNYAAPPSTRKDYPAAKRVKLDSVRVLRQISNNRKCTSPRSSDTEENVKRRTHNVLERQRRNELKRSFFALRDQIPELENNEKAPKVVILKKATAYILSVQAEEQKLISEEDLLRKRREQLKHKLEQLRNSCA

Substance: cdc25A 2.5 kb KpnI/HindIII fragment (MB2+MB3) luciferase reporter
- activity: 5 fold
